The results in this text go back to article PMC7316778 (Nature Communications, 2020).

For test [1], the target named is T1, FES^WT (Homo sapiens, UniProt P07332).
T1 construct: human FES cDNA encoding residues 448–822 or human FER cDNA encoding residues 448–820 was amplified by PCR; made in house; host or cells: E. coli BL21(DE3), co-expressing YopH phosphatase
Kind of test: In vitro TR-FRET kinase assay. In kind it is biochemical. The conditions noted are these: TR-FRET assay, 5 µM ATP; n = 3. As for the experimental part:
All measurements were performed in triplicate.

For another test, the target named is FES^S700C (Homo sapiens, UniProt P07332, S700C). Kind of test: In vitro TR-FRET kinase assay. The arrangement: human FES cDNA encoding residues 448–822 or human FER cDNA encoding residues 448–820 was amplified by PCR; made in house; host or cells: E. coli BL21(DE3), co-expressing YopH phosphatase. It is filed as biochemical. For orientation: In TR-FRET formats the signal depends on donor and acceptor labels being close together.
Sequence of FES^S700C (P07332 448-822 S700C): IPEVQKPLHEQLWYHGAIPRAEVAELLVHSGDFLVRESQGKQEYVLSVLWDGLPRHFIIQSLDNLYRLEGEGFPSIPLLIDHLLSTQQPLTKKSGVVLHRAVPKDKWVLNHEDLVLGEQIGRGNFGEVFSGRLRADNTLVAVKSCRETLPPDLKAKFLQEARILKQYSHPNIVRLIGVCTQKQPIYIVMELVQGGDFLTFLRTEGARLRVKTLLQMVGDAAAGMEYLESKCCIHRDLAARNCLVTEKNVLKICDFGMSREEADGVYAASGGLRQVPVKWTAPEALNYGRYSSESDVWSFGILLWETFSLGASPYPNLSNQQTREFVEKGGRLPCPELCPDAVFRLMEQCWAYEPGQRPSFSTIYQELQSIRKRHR

The next test concerns the target LYN (Homo sapiens, UniProt P07948). Kind of test: PamChip microarray peptide phosphorylation. The settings on record: peptide substrate phosphorylated by LYN.
Another test concerns the target CSK (Homo sapiens, UniProt P41240). In words: PamChip microarray peptide phosphorylation. The settings on record: peptide substrate phosphorylated by CSK.
Test [2] concerns the target T1, FES^WT. Kind of test: PamChip microarray peptide phosphorylation. It is filed as biochemical. The conditions noted are these: peptide substrate phosphorylated by FES - WT.
The next test concerns the target ABL1 (Homo sapiens, UniProt P00519). Kind of test: PamChip microarray peptide phosphorylation. The settings on record: peptide substrate phosphorylated by ABL1.
For a further test, the target named is FGR (Homo sapiens, UniProt P09769). In words: PamChip microarray peptide phosphorylation. The settings on record: peptide substrate phosphorylated by FGR.
The next test deals with SYK (Homo sapiens, UniProt P43405). Kind of test: PamChip microarray peptide phosphorylation. The conditions noted are these: peptide substrate phosphorylated by SYK.

Sequence of CSK (P41240 whole entry): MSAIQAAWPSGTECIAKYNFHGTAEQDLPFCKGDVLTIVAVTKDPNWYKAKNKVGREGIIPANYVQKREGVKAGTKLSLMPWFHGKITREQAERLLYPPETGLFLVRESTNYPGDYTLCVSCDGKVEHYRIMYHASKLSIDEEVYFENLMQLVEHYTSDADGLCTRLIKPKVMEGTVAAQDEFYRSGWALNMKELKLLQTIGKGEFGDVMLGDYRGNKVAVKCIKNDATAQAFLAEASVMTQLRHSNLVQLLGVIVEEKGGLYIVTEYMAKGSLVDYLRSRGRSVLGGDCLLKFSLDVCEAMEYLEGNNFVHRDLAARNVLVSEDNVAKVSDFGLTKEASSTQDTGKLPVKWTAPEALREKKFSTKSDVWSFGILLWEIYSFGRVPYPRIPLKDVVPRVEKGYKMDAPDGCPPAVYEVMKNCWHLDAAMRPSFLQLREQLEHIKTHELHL
Sequence of ABL1 (P00519 whole entry): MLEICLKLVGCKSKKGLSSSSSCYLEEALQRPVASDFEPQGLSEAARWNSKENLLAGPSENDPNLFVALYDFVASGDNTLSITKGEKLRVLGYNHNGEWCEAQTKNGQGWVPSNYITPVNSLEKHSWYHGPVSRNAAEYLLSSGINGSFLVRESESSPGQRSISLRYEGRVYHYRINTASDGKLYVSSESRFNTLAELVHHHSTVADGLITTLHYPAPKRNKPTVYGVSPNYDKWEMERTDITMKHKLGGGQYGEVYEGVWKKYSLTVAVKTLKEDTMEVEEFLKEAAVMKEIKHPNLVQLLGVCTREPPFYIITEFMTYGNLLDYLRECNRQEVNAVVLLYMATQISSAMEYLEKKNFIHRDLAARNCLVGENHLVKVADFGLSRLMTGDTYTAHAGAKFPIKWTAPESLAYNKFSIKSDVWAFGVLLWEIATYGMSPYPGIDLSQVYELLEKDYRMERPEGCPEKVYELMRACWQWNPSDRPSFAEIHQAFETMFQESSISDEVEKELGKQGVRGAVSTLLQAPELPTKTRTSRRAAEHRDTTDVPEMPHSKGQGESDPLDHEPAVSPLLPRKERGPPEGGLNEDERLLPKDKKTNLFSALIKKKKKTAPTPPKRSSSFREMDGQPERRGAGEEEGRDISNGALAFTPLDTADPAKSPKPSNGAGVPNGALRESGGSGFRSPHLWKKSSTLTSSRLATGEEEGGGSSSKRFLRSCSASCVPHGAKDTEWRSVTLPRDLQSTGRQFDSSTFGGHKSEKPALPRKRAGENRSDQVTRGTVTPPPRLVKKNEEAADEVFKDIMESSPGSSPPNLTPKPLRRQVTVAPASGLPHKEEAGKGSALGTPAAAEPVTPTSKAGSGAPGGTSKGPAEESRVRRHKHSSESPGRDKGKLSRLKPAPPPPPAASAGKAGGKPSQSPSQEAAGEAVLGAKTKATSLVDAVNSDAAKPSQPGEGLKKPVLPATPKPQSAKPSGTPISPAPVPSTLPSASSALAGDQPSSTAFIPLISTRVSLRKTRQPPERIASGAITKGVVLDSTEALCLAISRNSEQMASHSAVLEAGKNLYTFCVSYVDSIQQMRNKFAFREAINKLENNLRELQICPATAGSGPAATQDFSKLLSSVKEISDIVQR
Sequence of LYN (P07948 whole entry): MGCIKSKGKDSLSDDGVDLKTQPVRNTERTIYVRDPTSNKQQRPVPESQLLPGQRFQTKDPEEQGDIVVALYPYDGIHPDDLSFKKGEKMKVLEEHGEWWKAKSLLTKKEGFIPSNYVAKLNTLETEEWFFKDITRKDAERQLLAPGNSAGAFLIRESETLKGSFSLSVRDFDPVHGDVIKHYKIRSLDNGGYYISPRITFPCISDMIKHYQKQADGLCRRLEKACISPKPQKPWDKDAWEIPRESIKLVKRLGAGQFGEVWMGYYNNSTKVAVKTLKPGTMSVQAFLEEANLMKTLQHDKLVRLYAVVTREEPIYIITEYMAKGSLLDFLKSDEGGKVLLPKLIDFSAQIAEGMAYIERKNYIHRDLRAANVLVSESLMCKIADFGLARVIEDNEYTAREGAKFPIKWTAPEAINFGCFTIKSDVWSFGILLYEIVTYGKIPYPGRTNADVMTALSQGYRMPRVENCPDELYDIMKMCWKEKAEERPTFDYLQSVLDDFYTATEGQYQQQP
T1 sequence (P07332 448-822): as the sequence (P07332 448-822 S700C) above, with C253S counted along it

For `C=CC(=O)Nc1cccc(Nc2nc(Nc3ccccc3OC)ncc2Cl)c1` [Compound 3], on FES^WT [1], the “pIC50 FES^WT” value stood at 6.5 ± 0.06. The Apparent fold selectivity at FES^S700C (IC50 on FES^WT divided by IC50 on FES^S700C) is recorded as 0.65 fold. Besides, on FES^S700C (TR-FRET assay, 5 µM ATP, n = 3), the “pIC50 FES^S700C” value was found to be 6.3 ± 0.06.

“VGFR2_1168_1180 (AQQDGKDYIVLPI; UniProt P35968 1168-1180, looked up, fragment)”: the “Relative phosphorylation (% of highest signal)” value is 0.147 % of highest signal with LYN; 0.544 % of highest signal with CSK; 6.1 % of highest signal in the test with FES^WT [2]; 0.014 % of highest signal with ABL1; -1.8 % of highest signal in the test with FGR; 2.7 % of highest signal with SYK.

Take “VGFR2_1207_1219_C1208S (VSDPKFHYDNTAG; UniProt P35968 1207-1219, looked up, variant C1208S)”: the “Relative phosphorylation (% of highest signal)” value with LYN was -0.213 % of highest signal; in the test with CSK, -1.4 % of highest signal; with FES^WT [2], 0.5 % of highest signal; with ABL1, -0.742 % of highest signal; with FGR it was -0.6 % of highest signal; in the test with SYK it was -1.4 % of highest signal.

Regarding “VGFR3_1061_1073 (DIYKDPDYVRKGS; UniProt P35916 1061-1073, looked up, fragment)”, the “Relative phosphorylation (% of highest signal)” value was 0.0483 % of highest signal in the test with LYN; 0.341 % of highest signal in the test with CSK; -0.0595 % of highest signal in the test with FES^WT [2]; 2.9 % of highest signal in the test with ABL1; 0.468 % of highest signal with FGR; 2.4 % of highest signal in the test with SYK.

With “VINC_815_827 (KSFLDSGYRILGA; UniProt P18206 815-827, looked up, fragment)”, the “Relative phosphorylation (% of highest signal)” value with LYN is -0.3 % of highest signal; in the test with CSK, -0.442 % of highest signal; with FES^WT [2] it was 0.223 % of highest signal; in the test with ABL1, 1.1 % of highest signal; in the test with FGR it was -2.6 % of highest signal; in the test with SYK, -1.0 % of highest signal.

As to “ZAP70_485_497 (ALGADDSYYTARS; UniProt P43403 485-497, looked up, fragment)”, the “Relative phosphorylation (% of highest signal)” value with LYN is 1.0 % of highest signal; in the test with CSK, 0.277 % of highest signal; with FES^WT [2], 3.5 % of highest signal; in the test with ABL1 it was -0.0741 % of highest signal; with FGR, 7.8 % of highest signal; with SYK, 10.4 % of highest signal.

As to “ZBT16_621_633 (LRTHNGASPYQCT; UniProt Q05516 621-633, looked up, fragment)”, the “Relative phosphorylation (% of highest signal)” value is recorded as -0.2 % of highest signal in the test with LYN; -0.468 % of highest signal in the test with CSK; 0.657 % of highest signal with FES^WT [2]; -0.119 % of highest signal in the test with ABL1; 3.8 % of highest signal with FGR; -1.0 % of highest signal in the test with SYK.
